Reference: PMC3296483 (Biochemical Journal, 2011)

Experiments:
[1] = molecular target: GluA2 ATD (Rattus norvegicus) (UniProt P19491); details: cited from earlier work
crystal structure = molecular target: the molecule itself; assay: crystal structure

Chain of GluA2 ATD (Rattus norvegicus) (P19491 22-398): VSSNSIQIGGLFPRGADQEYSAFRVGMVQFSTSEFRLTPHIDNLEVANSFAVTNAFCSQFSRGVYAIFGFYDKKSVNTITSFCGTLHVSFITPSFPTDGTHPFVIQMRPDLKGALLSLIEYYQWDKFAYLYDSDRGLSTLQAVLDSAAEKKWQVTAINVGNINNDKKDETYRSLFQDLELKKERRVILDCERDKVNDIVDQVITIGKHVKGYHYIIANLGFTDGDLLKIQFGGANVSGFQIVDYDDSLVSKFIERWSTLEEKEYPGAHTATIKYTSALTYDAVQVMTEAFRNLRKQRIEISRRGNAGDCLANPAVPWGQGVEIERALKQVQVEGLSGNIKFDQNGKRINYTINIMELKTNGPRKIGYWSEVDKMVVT

GluA1 ATD (from UniProt P19490)
Kd [1]: 0.4 nM

B1: rat GluA1 amino-terminal domain (P4-A374), tags removed (domain or fragment, UniProt P19490 22-392, looked up)
chain: PNNIQIGGLFPNQQSQEHAAFRFALSQLTEPPKLLPQIDIVNISDSFEMTYRFCSQFSKGVYAIFGFYERRTVNMLTSFCGALHVCFITPSFPVDTSNQFVLQLRPELQEALISIIDHYKWQTFVYIYDADRGLSVLQRVLDTAAEKNWQVTAVNILTTTEEGYRMLFQDLEKKKERLVVVDCESERLNAILGQIVKLEKNGIGYHYILANLGFMDIDLNKFKESGANVTGFQLVNYTDTIPARIMQQWRTSDSRDHTRVDWKRPKYTSALTYDGVKVMAEAFQSLRRQRIDISRRGNAGDCLANPAVPWGQGIDIQRALQQVRFEGLTGNVQFNEKGRRTNYTLHVIEMKHDGIRKIGYWNEDDKFVPAA
binding result (crystal structure): binds
